Patent US20160257759A1 (SORRENTO THERAPEUTICS, published 2016)

T1: biotinylated human delta-like 1 (DLL1) (human, UniProt O00548 18-540, limits assumed, biotinylated (sites not given))
T1 sequence (looked up): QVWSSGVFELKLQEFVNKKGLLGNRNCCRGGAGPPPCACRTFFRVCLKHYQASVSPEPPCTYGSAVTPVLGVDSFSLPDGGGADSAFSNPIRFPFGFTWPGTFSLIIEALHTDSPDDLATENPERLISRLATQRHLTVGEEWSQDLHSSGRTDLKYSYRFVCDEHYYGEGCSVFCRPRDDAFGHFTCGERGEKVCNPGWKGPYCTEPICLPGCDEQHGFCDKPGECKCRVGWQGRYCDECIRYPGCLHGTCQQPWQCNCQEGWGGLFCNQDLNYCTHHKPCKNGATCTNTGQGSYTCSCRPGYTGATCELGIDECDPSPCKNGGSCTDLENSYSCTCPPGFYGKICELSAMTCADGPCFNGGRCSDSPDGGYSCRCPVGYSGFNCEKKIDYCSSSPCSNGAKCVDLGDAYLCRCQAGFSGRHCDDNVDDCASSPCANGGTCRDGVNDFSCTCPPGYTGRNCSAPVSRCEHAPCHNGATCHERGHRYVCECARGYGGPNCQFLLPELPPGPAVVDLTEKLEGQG


What was measured:
[1] = target: T2, human JAG1 on cells (K562 cells; Calu-6 cells) (human, UniProt P78504 34-1218); assay: cell-based or functional assay
[2] = target: T1, biotinylated human delta-like 1 (DLL1); assay: capture ELISA: B10 IgG captured on anti-human lambda, serially diluted biotinylated DLL1, neutravidin-AP, PNPP, absorbance
Description: (§1) Finally, an ELISA assay was carried out to determine antibody cross-reactivity to delta-like 1 (DLL1) and delta-like 2 (DLL2). One ELISA plate was coated with anti-human lambda and another ELISA plate was coated with anti-human kappa overnight at 4° C. The next morning each plate was blocked with a 1:1 mixture of casein:Super Block for 2 hours at room temperature. The B10 IgG was diluted to 0.3 μg/ml in block and added to the anti-human lambda coated wells, while the JG1H7 IgG was diluted to 0.3 μg/ml in block and added to the anti-human kappa coated wells and incubated at room temperature for 3 hours. As a control, other wells were treated with only block. After washing, serially-diluted biotinylated antigen (JAG1, DLL1, DLL2) was added to a column with captured antibody and a control column with no antibody, and incubated 1 hour at room temperature. After washing, neutravidin-AP was added, incubated for 20 min at room temperature, the plate washed and developed with 1-step PNPP, and the plate analyzed in a plate reader.

[3] = target: T2, human JAG1 on cells (K562 cells; Calu-6 …); assay: flow cytometry on K562 cells, IgG titrated, PE anti-human IgG, median fluorescence
Description: This example describes a cellular binding assay to determine the EC₅₀ for certain anti-JAG1 antibodies binding to K562 cells (ATCC CCL-243), where the concentration at which 50% binding saturation (EC₅₀) is reached. In this example, K562 cells were resuspended in FACS Buffer (2% Fetal Bovine Serum in PBS) at 1×10⁶ cells/ml. 50 μl (0.5×10⁵ cells) were aliquoted into the wells of a 96-well plate. Plated cells were spun down and the supernatant discarded. Cells were resuspended in serially diluted concentrations of each JAG1 IgG in 30 μl FACS Buffer done in triplicate. The antibodies and cells were incubated for 1 hr at 4° C. and then washed 2× with FACS Buffer. Cells were resuspended in 50 μl goat anti-human IgG (γ-chain specific)-PE-conjugated secondary antibody (Southern Biotech #2040-09) diluted 1:750 in FACS Buffer. Cells were further incubated in the dark for 30 min at 4° C. and then washed 1× with FACS Buffer. The cells were resuspended in a final volume of 30 μl FACS Buffer and analyzed using an Intellicyt Flow Cytometer. Median fluorescence in the FL-2H channel was determined using FlowJo software and EC₅₀ value was determined by a variable slope non-linear regression using ForeCyte software.

[4] = target: T1, biotinylated human delta-like 1 (DLL1); assay: capture ELISA: JG1H7 IgG captured on anti-human kappa, serially diluted biotinylated DLL1, neutravidin-AP, PNPP, absorbance
Description: as §1

human JAG2-Fc = target: T3, human JAG2-Fc (human, UniProt Q9Y219 24-1080, limits assumed); assay: ELISA: plate coated with human JAG2-Fc, serially diluted IgG, labeled goat anti-human Fd antibody, absorbance
T3 construct: not shown: Fc
Description: An ELISA assay was also carried out to determine the ability of the identified antibodies to bind to human JAG2. A 96-well ELISA plate was coated with human JAG2-Fc overnight. The next morning the plate was blocked with casein solution for 1 hour, followed by addition of serially diluted JG1H7 and JG1B10 IgG antibodies. As a control, antibodies were added to wells that were not coated with JAG2-Fc. After incubating for an hour, the plate was washed and labeled goat anti-human FD antibody was added for 30 minutes. The plate was washed, developed with substrate and the absorbance in each well measured on a spectrophotometer.

[5] = target: T4, Recombinant human JAG1/His (human, UniProt P78504 34-1046, limits assumed); assay: SPR (BiaCore), antibody captured on anti-human Fc CM5 chip, JAG1/His as analyte, 1:1 Langmuir fit
T4 construct: Analyte of the BiaCore assay; also called human JAW [sic]; not shown: His tag
Description: The binding affinity of antibody JG1H7 for human JAG1 was tested using a BiaCore assay. Specifically, anti-human Fc antibody (GE, BR-1008-39) was immobilized on a CM5 sensor chip to approximately 700 RU using standard NHS/EDC coupling methodology. Antibodies (about 10 μg/ml) were captured for 60 s at a flow rate 10 μl/min. Recombinant human JAG1/His was serially diluted in running buffer (HBS-EP). All measurements were conducted with a flow rate of 30 μL/min Surfaces were regenerated with 3M MgCl₂ for 60 s. A 1:1 (Langmuir) binding model was used to fit the data.

T2 sequence (P78504 34-1218): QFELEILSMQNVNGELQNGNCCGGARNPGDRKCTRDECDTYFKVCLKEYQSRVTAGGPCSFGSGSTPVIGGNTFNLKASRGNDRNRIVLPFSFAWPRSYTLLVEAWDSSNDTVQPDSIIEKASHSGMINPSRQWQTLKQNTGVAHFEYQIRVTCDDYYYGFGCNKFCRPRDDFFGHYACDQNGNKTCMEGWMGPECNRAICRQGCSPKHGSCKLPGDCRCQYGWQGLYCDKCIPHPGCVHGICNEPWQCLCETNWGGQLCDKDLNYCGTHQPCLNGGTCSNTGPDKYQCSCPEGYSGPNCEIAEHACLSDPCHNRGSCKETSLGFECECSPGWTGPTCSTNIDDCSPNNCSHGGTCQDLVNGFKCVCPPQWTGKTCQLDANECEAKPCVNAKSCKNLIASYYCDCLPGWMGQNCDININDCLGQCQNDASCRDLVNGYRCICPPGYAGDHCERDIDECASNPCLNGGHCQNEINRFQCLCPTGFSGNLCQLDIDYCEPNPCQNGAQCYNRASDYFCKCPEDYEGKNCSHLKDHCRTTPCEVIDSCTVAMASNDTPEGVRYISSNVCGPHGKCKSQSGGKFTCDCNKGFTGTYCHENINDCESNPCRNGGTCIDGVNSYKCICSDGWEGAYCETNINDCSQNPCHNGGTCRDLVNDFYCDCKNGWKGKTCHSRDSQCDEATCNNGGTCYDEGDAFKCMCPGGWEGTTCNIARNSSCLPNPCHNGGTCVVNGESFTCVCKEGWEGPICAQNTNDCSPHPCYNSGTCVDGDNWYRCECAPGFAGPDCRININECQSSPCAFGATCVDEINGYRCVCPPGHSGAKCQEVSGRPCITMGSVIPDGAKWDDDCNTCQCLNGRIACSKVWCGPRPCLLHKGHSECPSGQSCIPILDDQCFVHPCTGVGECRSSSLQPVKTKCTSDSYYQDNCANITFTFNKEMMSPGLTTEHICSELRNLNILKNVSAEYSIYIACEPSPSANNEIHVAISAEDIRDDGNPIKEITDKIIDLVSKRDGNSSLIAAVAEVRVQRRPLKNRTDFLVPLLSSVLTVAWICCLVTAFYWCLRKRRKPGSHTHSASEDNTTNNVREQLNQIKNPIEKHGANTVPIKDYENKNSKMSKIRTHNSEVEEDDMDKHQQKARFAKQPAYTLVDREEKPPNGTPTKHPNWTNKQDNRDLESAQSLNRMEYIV
T3 sequence (Q9Y219 24-1080 limits assumed): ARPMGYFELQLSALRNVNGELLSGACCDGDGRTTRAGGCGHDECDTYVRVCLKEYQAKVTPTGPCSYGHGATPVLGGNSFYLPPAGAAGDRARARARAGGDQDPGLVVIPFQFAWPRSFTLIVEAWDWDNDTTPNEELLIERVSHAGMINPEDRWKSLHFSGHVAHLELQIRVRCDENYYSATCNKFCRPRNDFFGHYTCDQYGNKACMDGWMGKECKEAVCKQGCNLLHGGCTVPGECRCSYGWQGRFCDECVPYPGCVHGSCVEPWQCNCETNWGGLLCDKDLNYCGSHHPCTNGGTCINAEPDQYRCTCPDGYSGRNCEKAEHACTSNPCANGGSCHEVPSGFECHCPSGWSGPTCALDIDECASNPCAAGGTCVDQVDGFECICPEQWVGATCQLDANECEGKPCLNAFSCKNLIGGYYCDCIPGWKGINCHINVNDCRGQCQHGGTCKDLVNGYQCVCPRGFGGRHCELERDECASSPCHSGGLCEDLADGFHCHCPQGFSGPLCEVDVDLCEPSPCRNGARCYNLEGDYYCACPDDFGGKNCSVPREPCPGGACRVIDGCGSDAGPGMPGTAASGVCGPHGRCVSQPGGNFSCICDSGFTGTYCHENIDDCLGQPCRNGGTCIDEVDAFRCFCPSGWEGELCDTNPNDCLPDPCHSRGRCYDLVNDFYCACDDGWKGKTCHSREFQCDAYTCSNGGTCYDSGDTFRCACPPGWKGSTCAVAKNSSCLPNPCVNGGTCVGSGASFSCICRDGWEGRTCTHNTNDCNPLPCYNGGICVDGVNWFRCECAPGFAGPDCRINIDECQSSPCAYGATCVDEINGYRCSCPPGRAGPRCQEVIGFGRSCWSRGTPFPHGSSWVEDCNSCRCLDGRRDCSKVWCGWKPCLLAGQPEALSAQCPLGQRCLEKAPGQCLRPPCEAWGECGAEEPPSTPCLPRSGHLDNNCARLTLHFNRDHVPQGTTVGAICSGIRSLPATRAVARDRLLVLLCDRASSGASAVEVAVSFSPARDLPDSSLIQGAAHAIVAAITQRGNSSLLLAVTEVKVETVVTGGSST

Row | Binder | IC50 (nM) of killing of Calu-6 cells by the antibody pre-complexed with Protein G-DM1 (1:4), Cell Titer Glo after 6 days [1] [nM] | EC50 [3] [nM] | other results
1 | JG1B10 (antibody, V domains shown, also called B10JAG1) VH: EVQLVESGGGLVQPGGSLRLSCAASGSTFSSYGMHWVRQAPGKGLEWVAVIWYDGSNKYYADSVKGRFTISRDNSKNTLYLQMNSLRAEDTAVYYCARGYNHDYWGQGTLVTVSS VL: LPVLTQPASVSGSPGQSITISCTGTSSDVGGYNYVSWYQQHPGKAPKLMIYDVSNRPSGVSNRFSGSKSGNTASLTISGLQAEDEADYYCSSYTSSSTYVFGIGTKLTVL | 1.35 | 32 | binding result [2]: no binding
2 | JG1H7 (antibody, V domains shown, captured by anti-human Fc in the BiaCore assay) VH: QVQLVQSGGGLIQPGGSLRLSCAASAFTVSNFYMTWVRQAPGKGLEWVSVIDSGGNTYYADSVRGRFTISRDNSKNTLFLQMNSLRAEDTAVYYCARDLGYYYAMDVWGQGTTVTVSS VL: DIVMTQSPSSLSASVGDRVTITCRASQSISTSLNWYQQKPGKAPKLLIYAASSLQSGVPSRFSGSGSGTDFTLTISSLQPEDFATYYCQQSYSTPTFGQGTKLEIK | 3.89 | 16 | binding result [4]: no binding; EC50 (read off the curve) (human JAG2-Fc): ~0.1 µg/mL; Ka [5]: 4.8e+06 M⁻¹; Kd [5]: 208 nM; koff [5]: 0.0411 s⁻¹; kon [5]: 197000 M⁻¹ s⁻¹
3 | JG1C8 (antibody, V domains shown) VH: EVQLVQSGAEVKKPGSSVKVSCKASGGTFSSYAISWVRQAPGQGLEWMGWISAYNGNTNYAQKLQGRVTMTTDTSTSTAYMELRSLRSDDTAVYYCARSRYDFWSGYYSGMDVWGQGTTVTVSS VL: NFMLTQPRSVSGSPGQSVTISCTGTSSDVGGYHYVSWYQQHPGKAPKLIIYDVSRRPSGVPDRFSGSKSGNTASLTVSGLQAEDEADYYCSSYGGSNNFVFGTGTKLTVL | 87.3 | 16 | –
4 | JG1H11 (antibody, V domains shown) VH: EVQLVESGGGVVQPGRSLRLSCAASGFTFSSYGMHWVRQAPGKGLEWVAVISYDGSNKYYADSVKGRFTISRDNSKNTLYLQMNSLRAEDTAVYYCAKDDWNYALDYWGQGTLVTVSS VL: QPVLTQPASVSGSPGQSITISCTGTRSDVGGYSYVSWYQQHPGKAPKLIYDVTKRPSGVSNRFSGSKSGNTASLTISGLQAEDEADYYCSSYTSSSTYVFGTGTKVTVL | 26.5 | 27 | –
5 | JH1F4 (antibody, V domains shown, also called JH-F4) VH: QVQLVQSGAEVKKPGASVKVSCKASGYTFTSYAMHWVRHAPGQRLEWMGWINAGNGNTKYSQKFQGRVTITRDTSASTAYMELSSLRSEDTAVYYCARDLDYYYGMDVWGQGTTVTVSS VL: QPVLTQPPSASGTPGQRVTISCSGSSSNIGSNIVNWYQQLPGTAPKLLIYSNNRRPSGVPDRFSGSKSGSSASLAISGLQSEDEADYYCAAWDATLGGLYVFGTGTKVTVL | – | 97 | –
6 | JG1A7 (antibody, V domains shown) VH: QVQLVESGGGLVKPGGSLRLSCAASGFTFSDYYMSWIRQAPGKGLEWVSYISSSGSTIYYADSVKGRFTISRDNAKNSLYLQMNSLRAEDTAVYYCARVNSGYDAVDYWGQGTLVTVSS VL: QSALTQPPSVSGAPGQTVTISCTGSRSNIGTYDVHWYQQFAGSAPKLLIYHNNDRSSGVPDRFSGSKSGTSASLAITGLQAEDEAVYFCQSHDNVLGGVFGGGTKLTVL | – | < 1 | –
